Experimental data taken from patent US6828106.

Target: T1, reporter peptide (Example 9, TEV) (not fully specified)
T1 chain: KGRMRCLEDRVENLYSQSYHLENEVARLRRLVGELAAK

B1: TEV (Tobacco Etch Virus) protease (protein)
chain: GESLFKGPRDYNPISSTICHLTNESDGHTTSLYGIGFGPFIITNKHLFRRNNGTLLVQSLHGVFKVKNTTTLQQHLIDGRDMIIIRMPKDFPPFPQKLKFREPQREERICLVTTNFQTKSMSSMVSDTSCTFPSSDGIFWKHWIQTKDGQCGSPLVSTRDGFIVGIHSASNFTNTNNYFTSVPKNFMELLTNQEAQQWVSGWRLNADSVLWGGHKVFMSKPEEPFQPVKEATQLMNELVYSQ
Km of TEV protease by FP analysis: 36 µM | Km of TEV protease by FRET analysis: 36 µM
